Test results from patent US20130078247A1 (Boehringer Ingelheim, published 2013).
Where “and” joins values, the source holds several entries; their conditions need not be identical. Equal values may be shown once.

How the values were obtained:
[1] = molecular target: T1, recombinant human Jagged-1 (Alexis) (human, UniProt P78504 34-1067, limits assumed); experiment: binding ELISA on coated rhJagged-1
T1 construct: also called hJagged-1; hJAG1
Method: Absence of binding to homologous ligands human DLL1 and human Jagged-1 is assessed via solid phase binding assay (ELISA). In brief, human DLL1 (Alexis, San Diego, Calif., USA) and human Jagged-1 (Alexis, San Diego, Calif., USA) are coated overnight at 4° C. at 1 μg/mL in a 96-well MaxiSorp plate (Nunc, Wiesbaden, Germany). Wells are blocked with a casein solution (1% in PBS). VHHs are applied as dilution series and binding is detected using a mouse anti-myc (Roche) and an anti-mouse-AP conjugate (Sigma, St. Louis, Mo., USA).

[2] = molecular target: recombinant human DLL4 extracellular domain, C-terminally His-tagged (R&D Systems) (human, UniProt Q9NR61 25-522, biotinylated in the competition assays (sites not given)); experiment: cell-based or functional assay
[3] = molecular target: human DLL4, full length, overexpressed on CHO or HEK293 cells (human, UniProt Q9NR61 27-685); experiment: cell-based or functional assay
recombinant human DLL4 [4] = molecular target: T2, recombinant human DLL4 (human, UniProt Q9NR61 25-522); experiment: cell-based or functional assay
recombinant human DLL4 [5] = molecular target: T2, recombinant human DLL4; experiment: SPR Biacore T100; rhDLL4 on chip; heterogeneous binding curve, no 1:1 fit
mouse Ang2 = molecular target: T3, mouse Ang2 (mouse, UniProt O35608 19-496, limits assumed); experiment: competition ELISA: mAng2 binding to mTie2
T3 construct: also called mAng2
T3 sequence (looked up): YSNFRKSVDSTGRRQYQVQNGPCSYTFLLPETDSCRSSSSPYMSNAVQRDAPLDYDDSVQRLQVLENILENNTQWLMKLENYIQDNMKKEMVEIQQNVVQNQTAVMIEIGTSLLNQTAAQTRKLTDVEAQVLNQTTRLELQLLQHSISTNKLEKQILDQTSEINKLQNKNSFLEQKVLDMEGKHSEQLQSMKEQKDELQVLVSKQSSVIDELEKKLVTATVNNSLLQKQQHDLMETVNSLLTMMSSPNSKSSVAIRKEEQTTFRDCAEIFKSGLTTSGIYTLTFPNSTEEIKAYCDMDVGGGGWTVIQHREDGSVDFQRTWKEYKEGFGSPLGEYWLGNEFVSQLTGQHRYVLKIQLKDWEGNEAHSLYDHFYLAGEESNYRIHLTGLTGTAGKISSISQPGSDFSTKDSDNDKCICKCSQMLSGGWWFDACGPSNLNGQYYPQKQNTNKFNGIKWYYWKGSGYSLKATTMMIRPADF

cynomolgus Ang2 = molecular target: T4, cynomolgus Ang2 (cynomolgus); experiment: competition ELISA: cAng2 binding to cTie2
T4 construct: also called cAng2; cyno Ang2

human Ang2 = molecular target: T5, human Ang2 (human, UniProt O15123 19-496, limits assumed); experiment: competition ELISA: hAng2 binding to hTie2
T5 construct: also called hAng2; human Angiopoietin2
T5 sequence (looked up): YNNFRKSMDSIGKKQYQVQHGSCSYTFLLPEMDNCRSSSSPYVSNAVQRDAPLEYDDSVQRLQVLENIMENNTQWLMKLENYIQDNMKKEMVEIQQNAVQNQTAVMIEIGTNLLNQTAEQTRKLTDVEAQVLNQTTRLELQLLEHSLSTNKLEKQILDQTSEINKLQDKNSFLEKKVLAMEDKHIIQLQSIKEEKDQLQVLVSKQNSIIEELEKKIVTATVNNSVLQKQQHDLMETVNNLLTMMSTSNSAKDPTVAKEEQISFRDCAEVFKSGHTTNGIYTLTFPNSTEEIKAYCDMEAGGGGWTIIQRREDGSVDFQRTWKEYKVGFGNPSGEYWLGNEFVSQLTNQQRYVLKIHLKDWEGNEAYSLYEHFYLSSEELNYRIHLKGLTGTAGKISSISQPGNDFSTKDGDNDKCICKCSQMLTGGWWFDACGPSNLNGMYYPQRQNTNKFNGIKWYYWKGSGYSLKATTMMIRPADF

rat DLL4 = molecular target: T6, rat DLL4 (rat, UniProt D3ZHH1 28-530, limits assumed); experiment: binding ELISA, coated rat DLL4
T6 construct: also called rDLLA; rDLL4
T6 sequence (D3ZHH1 28-530 limits assumed): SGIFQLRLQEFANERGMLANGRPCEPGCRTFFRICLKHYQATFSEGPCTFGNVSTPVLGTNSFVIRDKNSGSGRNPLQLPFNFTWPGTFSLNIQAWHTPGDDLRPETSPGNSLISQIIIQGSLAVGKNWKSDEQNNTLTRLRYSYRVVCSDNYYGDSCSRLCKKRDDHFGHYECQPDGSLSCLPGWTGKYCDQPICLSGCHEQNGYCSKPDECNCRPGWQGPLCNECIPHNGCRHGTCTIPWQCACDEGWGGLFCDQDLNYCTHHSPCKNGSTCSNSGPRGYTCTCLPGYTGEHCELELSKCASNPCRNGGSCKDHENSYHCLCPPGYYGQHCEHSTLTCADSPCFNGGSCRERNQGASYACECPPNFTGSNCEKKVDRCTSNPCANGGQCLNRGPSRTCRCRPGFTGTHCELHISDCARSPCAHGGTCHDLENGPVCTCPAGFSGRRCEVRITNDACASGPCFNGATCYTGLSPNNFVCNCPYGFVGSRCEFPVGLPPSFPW
Method: (§1) In order to determine cross-reactivity to mouse DLL4 and rat DLL4, a binding ELISA is performed. […] Wells are blocked with a 1% casein solution. VHHs are applied as dilution series and binding is detected biotinylated anti-VHH 1A4 followed by extravidin-HRP. 1A4 is an anti-VHH VHH (generated in-house by Ablynx NV). As reference binding to human DLL4 is measured.

recombinant mouse DLL4 = molecular target: T7, recombinant mouse DLL4 (mouse, UniProt Q9JI71 27-532); experiment: binding ELISA, coated mDLL4
T7 construct: extracellular domain; also called rmDLL4; mDLL4; not shown: C-terminal His tag
T7 sequence (Q9JI71 27-532): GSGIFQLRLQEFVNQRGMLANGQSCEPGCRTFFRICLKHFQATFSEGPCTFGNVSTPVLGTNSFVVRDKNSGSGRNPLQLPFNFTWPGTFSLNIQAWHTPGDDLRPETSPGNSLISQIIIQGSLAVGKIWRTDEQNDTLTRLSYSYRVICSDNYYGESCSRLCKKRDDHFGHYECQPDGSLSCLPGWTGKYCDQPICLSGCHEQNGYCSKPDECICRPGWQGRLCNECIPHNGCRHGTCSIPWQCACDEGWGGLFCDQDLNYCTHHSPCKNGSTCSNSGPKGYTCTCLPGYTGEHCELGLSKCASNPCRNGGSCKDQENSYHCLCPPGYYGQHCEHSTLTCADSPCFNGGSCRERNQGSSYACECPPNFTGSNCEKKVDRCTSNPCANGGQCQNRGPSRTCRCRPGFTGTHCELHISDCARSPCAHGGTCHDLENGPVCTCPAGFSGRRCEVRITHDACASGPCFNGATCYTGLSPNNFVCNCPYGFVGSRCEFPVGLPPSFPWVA
Method: as §1

[6] = molecular target: T8, cynomolgus DLL4 overexpressed on CHO cells (cynomolgus, UniProt Q9NR61 27-685 (human entry)); experiment: FACS, CHO-cDLL4 cells
T8 construct: also called CHO-cDLL4; cDLL4
T8 chain: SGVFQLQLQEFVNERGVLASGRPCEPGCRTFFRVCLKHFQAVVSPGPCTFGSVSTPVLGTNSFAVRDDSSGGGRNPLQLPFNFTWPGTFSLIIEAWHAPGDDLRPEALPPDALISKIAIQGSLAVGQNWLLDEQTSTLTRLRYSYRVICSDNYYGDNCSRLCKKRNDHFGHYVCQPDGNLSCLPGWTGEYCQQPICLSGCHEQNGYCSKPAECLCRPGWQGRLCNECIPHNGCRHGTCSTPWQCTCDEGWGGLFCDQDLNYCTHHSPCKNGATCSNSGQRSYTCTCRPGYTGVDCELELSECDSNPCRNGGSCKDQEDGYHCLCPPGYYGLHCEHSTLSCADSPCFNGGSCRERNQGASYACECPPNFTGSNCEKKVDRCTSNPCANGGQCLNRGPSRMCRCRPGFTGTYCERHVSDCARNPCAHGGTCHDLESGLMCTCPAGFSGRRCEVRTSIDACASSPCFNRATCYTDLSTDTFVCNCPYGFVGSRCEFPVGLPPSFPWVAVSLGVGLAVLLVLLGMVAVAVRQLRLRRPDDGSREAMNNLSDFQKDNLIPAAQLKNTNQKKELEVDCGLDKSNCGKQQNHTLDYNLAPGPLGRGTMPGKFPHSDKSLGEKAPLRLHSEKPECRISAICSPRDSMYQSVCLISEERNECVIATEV
Method: Additionally, in order to determine cross-reactivity of the bispecific VHHs to murine and cynomolgus DLL4, a FACS binding experiment is performed. Briefly, CHO cells overexpressing mouse and cynomolgus DLL4 are used for a titration binding experiment of the VHHs. After a 30 min incubation on ice, all samples are washed and a 2-step detection using anti-c-myc followed by goat-anti mouse IgG-PE labeled is performed. CHO cells overexpressing human DLL4 are taken as reference. The mean MCF value is determined using a FACS Array and used for calculation of the EC₅₀ value (Table 24; FIG. 19).

B1: DLLBII56A09 (VHH)
VHH: EVQLVESGGGLVQPGGSLRLSCAASGFTFDDYAIGWFRQAPGKEPEGISCISSSGGITYYADSVKGRFTTSRDNAKNTVYLQMNSLKPEDTAVYYCATPGIAACRGIHYTGQGTQVTVSS
notes: also called 56A9; DLLBII56A9; not shown: C-terminal c-myc and His6 tags
[1]
  binding result: no binding (tested: 2.5e-7 M)
[2]
  concentration giving complete inhibition, HUVEC proliferation assay: 10 µM
[3]
  IC50, DLL4/Notch1 reporter assay (luciferase; co-culture with HEK293-hDII4): 540 nM

B2: DLLBII104G01 (VHH)
VHH: EVQLVESGGGLVQAGGSLRLSCAASGFTFDDYAIGWFRQAPGKEREGVSCISSSDGSTYYADSVKGRFTISSDNAKNTVYLQMNSLKPEDTAVYYCATAWCDSSWYRSFVGYWGQGTQVTVSS
notes: also called 104G1; not shown: C-terminal c-myc tag and His6 tag
Recombinant human DLL4 [4]
  IC50 (nM) in the DLL4 proliferation assay (HUVEC, experiment 1): 103 nM
  IC50 (nM) in the DLL4 proliferation assay (HUVEC, experiment 2): 32 nM
Recombinant human DLL4 [5]
  kon: 120000 M⁻¹ s⁻¹ and 150000 M⁻¹ s⁻¹

B3: 00956 (VHH)
VHH: EVQLVESGGGLVQPGGSLRLSCAASGFTLDDYAIGWFRQAPGKEREGVSAIRSSGGSTYYADSVKGRFTISSDNSKNTVYLQMNSLRPEDTAVYYCAAVPAGRLRFGEQWYPLYEYDAWGQGTLVTVSS
Mouse Ang2
  IC50 (read off the curve): ~2 nM
Cynomolgus Ang2
  IC50 (read off the curve): ~2 nM
Human Ang2
  IC50 (read off the curve): ~1 nM

B4: DLLBII00018 (VHH)
VHH: DVQLVESGGGLVQPGGSLRLSCAASGRTFSSYAMAWYRQAPGKEREYVAAIRWSGGTAYYADSVKGRFTISRDNAKNTVYLQMNSLRPEDTAVYYCANRAPDTRLAPYEYDHWGQGTLVTVSS
Rat DLL4
  EC50: 2.6 nM
Recombinant mouse DLL4
  EC50: 3.3 nM
[6]
  EC50: 0.8 nM
